Source: publication PMC7272653, “Human aminolevulinate synthase structure reveals a eukaryotic-specific autoinhibitory loop regulating substrate binding and product release” (Nature Communications, 2020)

Biological target: the molecule itself
Test: SEC + other: SAXS; in solution; SAXS coupled to a Shodex KW403-4F size exclusion column; 300 mM NaCl, 25 mM Hepes 7.5, 1 mM TCEP, 2% glycerol, 1% sucrose, 20 °C

B1: hsALAS2_(ΔN142ΔC545) (catalytic domain alone, aa 143–545) (domain or fragment, human, UniProt P22557 143-545, looked up)
chain: FSYDQFFRDKIMEKKQDHTYRVFKTVNRWADAYPFAQHFSEASVASKDVSVWCSNDYLGMSRHPQVLQATQETLQRHGAGAGGTRNISGTSKFHVELEQELAELHQKDSALLFSSCFVANDSTLFTLAKILPGCEIYSDAGNHASMIQGIRNSGAAKFVFRHNDPDHLKKLLEKSNPKIPKIVAFETVHSMDGAICPLEELCDVSHQYGALTFVDEVHAVGLYGSRGAGIGERDGIMHKIDIISGTLGKAFGCVGGYIASTRDLVDMVRSYAAGFIFTTSLPPMVLSGALESVRLLKGEEGQALRRAHQRNVKHMRQLLMDRGLPVIPCPSHIIPIRVGNAALNSKLCDLLLSKHGIYVQAINYPTVPRGEELLRLAPSPHHSPQMMEDFVEKLLLAWTAVGL
notes: human ALAS2, catalytic domain alone, aa 143–545 (Ct-extension omitted); also called hsALAS2_(ΔN142ΔC545) WT; source: constructs cloned into pFB-LIC-Bse (Sf9) and pNIC28-Bsa4; purified (Ni-NTA, Superdex 200)
For B1, the “stoichiometry N” value was 2.

B2: hsALAS2_(ΔN142) (human erythroid-specific 5′-aminolevulinate synthase, aa 143–587) (enzyme, UniProt P22557 143-587, looked up)
chain: FSYDQFFRDKIMEKKQDHTYRVFKTVNRWADAYPFAQHFSEASVASKDVSVWCSNDYLGMSRHPQVLQATQETLQRHGAGAGGTRNISGTSKFHVELEQELAELHQKDSALLFSSCFVANDSTLFTLAKILPGCEIYSDAGNHASMIQGIRNSGAAKFVFRHNDPDHLKKLLEKSNPKIPKIVAFETVHSMDGAICPLEELCDVSHQYGALTFVDEVHAVGLYGSRGAGIGERDGIMHKIDIISGTLGKAFGCVGGYIASTRDLVDMVRSYAAGFIFTTSLPPMVLSGALESVRLLKGEEGQALRRAHQRNVKHMRQLLMDRGLPVIPCPSHIIPIRVGNAALNSKLCDLLLSKHGIYVQAINYPTVPRGEELLRLAPSPHHSPQMMEDFVEKLLLAWTAVGLPLQDVSVAACNFCRRPVHFELMSEWERSYFGNMGPQYVTTYA
notes: human ALAS2 (5′-aminolevulinate synthase, erythroid-specific), aa 143–587: catalytic core and Ct-extension; Before crystallisation it was made non-covalent with hydroxylamine; The His6 tag is TEV-cleavable and was removed 'where applicable'; also called hsALAS2_(ΔN142) WT; source: baculovirus-infected Sf9 insect cells, purified (Ni-NTA, Superdex 200)
With B2 the “stoichiometry N” value was 2.
